Measurements reported in the supplement of paper PMC10567573.

B1: SMG5 (parent)
chain: QEKLQVLMAEGLLPAVKVFLDWLR
B2: FAM107A (parent)
chain: HRRGLGVDSKPELQRVLEHRRRNQ

Variants of: B1
Assay: protein stability index of a GFP-peptide fusion (GPS, HEK-293T) (PSI 1-6); higher = more stable
Settings: c terminus: a fixed tail appended
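Note: lentivirally expressed fusions sorted by FACS into six bins by GFP to DsRed ratio, PSI derived from sequencing read proportions per bin multiplied by bin number.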

Protein stability index: each site, then its substitutions
L23: Y 1.97, P 2.21, R 2.38, G 2.66, D 2.75, T 1.19, E 1.26, C 1.08, V 1.67, H 1.27, I 2.39, N 2.58, Q 1.91, A 1.72, F 2.67, M 4.59, W 1.7, S 2.57, K 1.83
D21: Y 3.03, E 1.33, H 3.17, N 2.6, I 2.5, C 1.68, M 2.04, F 3.72, A 2.05, T 2.98, L 2.2, G 2.04, P 1.65, K 2.54
F19: K 2.35, D 2.14, L 1.9, I 2.39, Y 1.6, R 2.12, M 2.48, Q 2.13, A 2.97, G 3.15, C 2.4, S 2.73, E 1.53, W 1.89, N 1.53, P 2.17, H 1.31
V18: P 1.91, K 2.05, Q 3.07, L 1.99, I 2.82, M 2.59, H 3.52, W 1.64, Y 3.16, T 3.25, R 3.86, S 3.52, G 3.13
W22: L 2.47, A 2.8, H 2.73, S 2.17, K 2.53, T 1.91, E 2.05, Y 2.13, M 1.57, V 1.62, C 1.99, N 2.28, P 2.26, F 2.09, Q 2.38, I 1.96, G 2.63, R 1.95
L20: W 2.29, A 3.26, S 2.73, F 2.52, Q 2.02, G 1.77, T 3.12, E 1.7, V 1.4, Y 1.54, D 1.59, P 1.76, M 2.64, I 2.02, C 3.11, R 1.58, K 1.41
R24: S 2.62, Y 1.91, T 1.88, W 1.83, V 1.67, K 2.45, A 1.21, G 1.43, P 3.34, N 1.92, F 2.23, E 2.5, M 1.89, Q 1.75, C 1.59, D 2, L 2.96, I 1.93, H 2.6

Variants of: B2
Assay: as above
Settings: c terminus: a fixed tail appended

Protein stability index of substitutions, site by site:
P11: D 4.29, M 3.99, C 4.13, R 4.13, G 4.55, V 3.95, A 4.05, Y 2.59, K 3.82, T 3.51, Q 3.73, W 3.25, I 3.42, H 4.35
L5: K 4.04, I 3.15, R 5.2, P 4.16, H 4.21, Y 4.66, E 4.34, M 4.52, F 4.13, V 3.46, A 4, Q 5.16, T 4.82
R3: T 4.92, F 3.9, G 5.11, I 4.29, Q 3.65, K 4.52, N 4.25, P 4.55, S 4.91, H 4.95, E 4.2, A 4.9, V 4.74, C 3.97, W 4.22, M 3.9, L 4.14
K10: L 2.36, M 4.27, D 4.89, N 4.48, T 4.38, W 2.6, A 4.56, S 5.01, C 3.82, E 4.55, G 4.5, Q 4.92, H 4.18
G6: I 3.68, A 1.82, K 2.56, H 3.22, P 4.63, F 3.06, D 2.51, Y 3.5, Q 3.18, M 4.25, T 2.78
V7: Q 4.95, Y 4.23, F 3.42, D 4.93, K 4.33, T 4.79, A 3.74, R 4.39, M 3.62, C 3.07, S 4.88, H 2.61
H1: V 4.43, W 3.11, S 4.16, P 2, A 3.52, K 4.53, R 4.55, Y 4.12, E 4.92, N 4.5, T 4.04, C 3.42, L 4.8
D8: N 3, P 2.54, G 3.42, F 2.23, Q 3.34, Y 2.41, I 3.74, S 2.41, T 4.41, R 4.26, M 3.18, C 3.08, E 4.59, H 3.74, V 4.07, A 2.92, K 3.79
R15: S 4.43, P 4.89, G 5.35, A 4.26, Y 4.79, M 4.06, E 4.17, Q 3.56, W 3.21, D 4.26, H 4.25, N 4.29, F 4.19, T 4.34, K 3.31
E12: T 2.98, C 4.11, L 4.02, K 4.18, A 4.3, R 2.99, W 3.5, D 2.18
V16: G 5.55, H 3.96, D 4.25, F 4.23, C 4.44, A 4.83
S9: I 4.66, H 4.46, A 2.99, Y 4.16, L 4.15, D 4.67, F 3.52, G 4.41, V 3.98, M 4.14, E 4.39, R 4.8, W 3.55, K 4.76, P 4.38
G4: D 4.49, A 3.35, Y 4.32, V 4.87, E 5.08, R 4.2, H 4.3, F 4.72, Q 4.33, I 4.21, K 5.72, P 4.8, S 3.63, T 3.35, C 4.02, N 4.42
L13: D 5.59, K 4.97, N 5.21, F 4.75, Q 5.33, H 4.93, M 4, R 4.14, C 3.67, T 5.23, E 5.77, A 4.31, S 4.93, Y 4.95, G 4.94, V 3.94, I 4.71
R2: L 3.91, T 4.95, V 5, F 4.86, Q 4.58, C 4.78, G 4.84, P 4.96, D 5.11, W 3.71, K 3.05, N 4.2, E 4.7, H 4.05, I 3.4, Y 5.39
Q14: P 4, G 4.8, F 3.62, N 4.5, I 2.75, K 3.39, S 3.71, D 4.07, V 3.86, Y 3.15, M 2.81, T 4.28, C 4.03, H 3.48
